The record followed here is the supplement of paper PMC9112550, “Optimization of the antimicrobial peptide Bac7 by deep mutational scanning” (BMC Biology, 2022).

The data set has as its system Escherichia coli TOP10. The data set can be described thus: shrunken log2 fold change of peptide-encoding DNA abundance (4.5 h post-induction vs induction); higher = less antimicrobial activity (less host growth inhibition). To be noted: time post-induction: 4.5 h; library: site-saturation at positions 5, 18, 19, 20.
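Also: peptides expressed intracellularly from a pBAD plasmid library in pooled LB shake-flask culture, induced with 0.3% L-arabinose, DNA abundance read by NGS, three biological replicates, DESeq2 with apeglm shrinkage.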

In the case of RRIRTRPPRLPRPRPRPTSGPRP, the “shrunken log2 fold change” value is 0.0562. Consider RRIRTRPPRLPRPRPRPQKIPRP, for which the “shrunken log2 fold change” value was -0.123. With RRIRHRPPRLPRPRPRPAYPPRP the figure was -0.37. For the sequence RRIRKRPPRLPRPRPRPSHYPRP, the “shrunken log2 fold change” value is -0.248. As to RRIRCRPPRLPRPRPRPFVMPRP, the “shrunken log2 fold change” value was -0.153. As for RRIRRRPPRLPRPRPRPVWTPRP, the “shrunken log2 fold change” value was determined as 0.436. In the case of RRIRNRPPRLPRPRPRPLWNPRP, the “shrunken log2 fold change” value was -0.511. Consider RRIRFRPPRLPRPRPRPPCHPRP, for which the “shrunken log2 fold change” value was -0.0556. With RRIRYRPPRLPRPRPRPCHFPRP the figure was -0.0527. The figure for RRIRTRPPRLPRPRPRPNNRPRP is -0.754; for RRIRSRPPRLPRPRPRPQGIPRP it is 0.0897. Take RRIRWRPPRLPRPRPRPGPFPRP: the “shrunken log2 fold change” value turned out to be 0.125. As for RRIRCRPPRLPRPRPRPPHWPRP, the “shrunken log2 fold change” value amounted to 0.531.

For RRIRSRPPRLPRPRPRPHVHPRP, the “shrunken log2 fold change” value is -0.412. As to RRIRVRPPRLPRPRPRPQKMPRP, the “shrunken log2 fold change” value was -0.234.

As for RRIRCRPPRLPRPRPRPDNHPRP, the “shrunken log2 fold change” value is -0.719. In the case of RRIRNRPPRLPRPRPRPDNEPRP, the “shrunken log2 fold change” value turned out to be 0.114. RRIRERPPRLPRPRPRPTCFPRP: the “shrunken log2 fold change” value was -0.133.

For the sequence RRIRNRPPRLPRPRPRPQYSPRP, the “shrunken log2 fold change” value is -0.232.

As for RRIRTRPPRLPRPRPRPKNVPRP, the “shrunken log2 fold change” value stood at 0.0149.

Turning to RRIRVRPPRLPRPRPRPMMFPRP, the “shrunken log2 fold change” value was -0.0953. The figure for RRIRERPPRLPRPRPRPFIAPRP is -0.2; for RRIRARPPRLPRPRPRPVQRPRP it is 0.615. As for RRIRPRPPRLPRPRPRPNKVPRP, the “shrunken log2 fold change” value was -0.1. Turning to RRIRMRPPRLPRPRPRPGIFPRP, the “shrunken log2 fold change” value was 0.00597. In the case of RRIRERPPRLPRPRPRPDKAPRP, the “shrunken log2 fold change” value is -0.0525.

Consider RRIRHRPPRLPRPRPRPHIRPRP, for which the “shrunken log2 fold change” value was -0.0193. As for RRIRIRPPRLPRPRPRPELRPRP, the “shrunken log2 fold change” value came to 0.0361. In the case of RRIRARPPRLPRPRPRPHLNPRP, the “shrunken log2 fold change” value was 0.102.

On to RRIRQRPPRLPRPRPRPGGKPRP, for which the “shrunken log2 fold change” value is -0.0313. With RRIRNRPPRLPRPRPRPMVYPRP, the “shrunken log2 fold change” value was found to be 0.0157. Take RRIRTRPPRLPRPRPRPGAWPRP: the “shrunken log2 fold change” value worked out at 0.12.

Regarding RRIRARPPRLPRPRPRPLDYPRP, the “shrunken log2 fold change” value was -0.25.

Turning to RRIRERPPRLPRPRPRPAEPPRP, the “shrunken log2 fold change” value was -0.000777. In the case of RRIRRRPPRLPRPRPRPYHKPRP, the “shrunken log2 fold change” value was -0.535. Take RRIRGRPPRLPRPRPRPKELPRP: the “shrunken log2 fold change” value was 0.247. With RRIRARPPRLPRPRPRPRRGPRP the figure was 0.759; with RRIRGRPPRLPRPRPRPAIYPRP, 0.302. Consider RRIRERPPRLPRPRPRPPPAPRP, for which the “shrunken log2 fold change” value was 0.365. Turning to RRIRDRPPRLPRPRPRPKRTPRP, the “shrunken log2 fold change” value worked out at 0.143. Regarding RRIRFRPPRLPRPRPRPKYEPRP, the “shrunken log2 fold change” value was -0.063.

Regarding RRIRRRPPRLPRPRPRPFNQPRP, the “shrunken log2 fold change” value was -0.0554. Turning to RRIRTRPPRLPRPRPRPMREPRP, the “shrunken log2 fold change” value was determined as 0.864. In the case of RRIRDRPPRLPRPRPRPMCFPRP, the “shrunken log2 fold change” value worked out at 0.0878. For RRIRNRPPRLPRPRPRPKPMPRP, the “shrunken log2 fold change” value was 0.375. The figure for RRIRTRPPRLPRPRPRPGCCPRP is 0.334. With RRIRRRPPRLPRPRPRPYPQPRP, the “shrunken log2 fold change” value is -0.0454. For RRIRLRPPRLPRPRPRPPEDPRP, the “shrunken log2 fold change” value stood at 0.0763. The figure for RRIRCRPPRLPRPRPRPGDWPRP is 0.377. With RRIRGRPPRLPRPRPRPRCLPRP, the “shrunken log2 fold change” value was determined as 0.706.
